# Biological target: recombinant SARS-CoV-2 S protein ectodomain (residues 14-1211), 2P, furin site mutated, foldon, 8XHis (SARS-CoV-2) (UniProt P0DTC2)
# Experiment: ELISA on coated antigen, anti-human IgG-HRP
substance,measurement,value
mAb 2B04 (antibody),minimum positive concentration,< 5 µg/mL

# Reference: patent WO2021212049A2
